{
  "source": "FireProtDB (doi:10.1021/bi050142b)",
  "proteins": {"B1": {"name": "Guanyl-specific ribonuclease Sa wild type, P05798 (protein)", "chain": "DVSGTVCLSALPPEATDTLNLIASDGPFPYSQDGVVFQNRESVLPTQSYGYYHEYTVITPGARTRGTRRIITGEATQEDYYTGDHYATFSLIDQTC"}},
  "conditions": "Kitasatospora aureofaciens, 30 °C, GdnHCl, reversible: yes (>98%), whole UniProt chain shown",
  "data": [
    {"protein": "B1", "values": [
      {"measurement": "denaturant m value", "setting": "pH 5.5, CD, None", "result": 2.32, "unit": "kcal/mol/M"},
      {"measurement": "unfolding free energy", "setting": "pH 5.5, CD, None", "result": 7.5, "unit": "kcal/mol"},
      {"measurement": "unfolding free energy", "setting": "pH 5.5, NMR hydrogen exchange", "result": 2.82, "unit": "kcal/mol"},
      {"measurement": "denaturant m value", "setting": "pH 5.9, CD, None", "result": 2.3, "unit": "kcal/mol/M"},
      {"measurement": "unfolding free energy", "setting": "pH 5.9, CD, None", "result": 6.7, "unit": "kcal/mol"}
    ]}
  ]
}
